B1: maltose-binding protein (MBP)-tagged full-length human DDX6 (natural protein)
chain: MSTARTENPVIMGLSSQNGQLRGPVKPTGGPGGGGTQTQQQMNQLKNTNTINNGTQQQAQSMTTTIKPGDDWKKTLKLPPKDLRIKTSDVTSTKGNEFEDYCLKRELLMGIFEMGWEKPSPIQEESIPIALSGRDILARAKNGTGKSGAYLIPLLERLDLKKDNIQAMVIVPTRELALQVSQICIQVSKHMGGAKVMATTGGTNLRDDIMRLDDTVHVVIATPGRILDLIKKGVAKVDHVQMIVLDEADKLLSQDFVQIMEDIILTLPKNRQILLYSATFPLSVQKFMNSHLQKPYEINLMEELTLKGVTQYYAYVTERQKVHCLNTLFSRLQINQSIIFCNSSQRVELLAKKISQLGYSCFYIHAKMRQEHRNRVFHDFRNGLCRNLVCTDLFTRGIDIQAVNVVINFDFPKLAETYLHRIGRSGRFGHLGLAINLITYDDRFNLKSIEEQLGTEIKPIPSNIDKSLYVAEYHSEPVEDEKP
B3: GST–CNOT1_(1088–1312) (domain or fragment)
chain: ENIQEKIAFIFNNLSQSNMTQKVEELKETVKEEFMPWVSQYLVMKRVSIEPNFHSLYSNFLDTLKNPEFNKMVLNETYRNIKVLLTSDKAAANFSDRSLLKNLGHWLGMITLAKNKPILHTDLDVKSLLLEAYVKGQQELLYVVPFVAKVLESSIRSVVFRPPNPWTMAIMNVLAELHQEHDLKLNLKFEIEVLCKNLALDINELKPGNLLKDKDRLKNLDEQLS

What all share (assay): pull-down
One experiment concerns the target GST–CNOT1_(1075–1575) (human, UniProt A5YKK6-2 1075-1575).
The experiment “GST–CNOT1_(1088–1312)” concerns the target B3.
In experiment [1] the target is B1.
Experiment [2] addresses T1, MBP–DDX6 N-term (residues 1–302) (human, UniProt P26196 1-302).
T1 sequence: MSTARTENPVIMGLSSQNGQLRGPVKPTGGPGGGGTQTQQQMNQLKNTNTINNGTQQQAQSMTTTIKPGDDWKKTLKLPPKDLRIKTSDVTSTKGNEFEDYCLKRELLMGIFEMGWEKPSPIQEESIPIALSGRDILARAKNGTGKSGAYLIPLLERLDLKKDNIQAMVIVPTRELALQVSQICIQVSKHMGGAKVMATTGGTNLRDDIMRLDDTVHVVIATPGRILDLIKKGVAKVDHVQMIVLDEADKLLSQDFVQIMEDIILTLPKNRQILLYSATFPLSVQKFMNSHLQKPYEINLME

Chain of GST–CNOT1_(1075–1575) (A5YKK6 1080-1580): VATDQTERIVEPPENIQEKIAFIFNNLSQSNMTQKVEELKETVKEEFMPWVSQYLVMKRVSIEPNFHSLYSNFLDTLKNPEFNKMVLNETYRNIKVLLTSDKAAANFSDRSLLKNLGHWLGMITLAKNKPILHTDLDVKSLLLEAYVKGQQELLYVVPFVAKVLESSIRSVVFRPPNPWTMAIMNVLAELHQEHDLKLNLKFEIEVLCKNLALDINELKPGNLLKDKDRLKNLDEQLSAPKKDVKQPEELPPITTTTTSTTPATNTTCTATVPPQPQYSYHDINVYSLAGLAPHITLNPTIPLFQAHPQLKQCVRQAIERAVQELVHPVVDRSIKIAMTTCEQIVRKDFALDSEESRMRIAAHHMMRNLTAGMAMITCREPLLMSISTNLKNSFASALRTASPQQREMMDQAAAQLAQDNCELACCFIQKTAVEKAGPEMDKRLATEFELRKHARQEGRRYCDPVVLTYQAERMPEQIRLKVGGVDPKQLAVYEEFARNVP

For the molecule B1, the binding result with GST–CNOT1_(1075–1575) is “binds”.

B2: MBP–DDX6 C-term (residues 303–483) (domain or fragment)
chain: ELTLKGVTQYYAYVTERQKVHCLNTLFSRLQINQSIIFCNSSQRVELLAKKISQLGYSCFYIHAKMRQEHRNRVFHDFRNGLCRNLVCTDLFTRGIDIQAVNVVINFDFPKLAETYLHRIGRSGRFGHLGLAINLITYDDRFNLKSIEEQLGTEIKPIPSNIDKSLYVAEYHSEPVEDEKP
For the molecule B2, the binding result with GST–CNOT1_(1088–1312) is “binds”. On to B3, for which the binding result in experiment [1] and in experiment [2] was “binds” in each case.

(Values after PMC4138323 (RNA, 2014).)
